The record followed here is the Human Domainome abundance scans (Beltran et al. 2025).

± gives the uncertainty stated by the source.

The data set can be described thus: abundance fitness (aPCA) (normalised: wild type 0, dead -1); higher = more abundant; growth selection in yeast, the domain comes from the species named. The following applies: Homo sapiens.
As for Gamma-crystallin D G100C, P07320, the abundance fitness is -0.117 ± 0.096.

As for Gamma-crystallin D G100D, P07320, the abundance fitness came to 0.069 ± 0.11. Gamma-crystallin D G100E, P07320: the abundance fitness was -0.069 ± 0.085.

On to Gamma-crystallin D G100F, P07320, for which the abundance fitness was -0.779 ± 0.17. Take Gamma-crystallin D G100H, P07320: the abundance fitness is -0.561 ± 0.28.

For the substance Gamma-crystallin D G100I, P07320, the abundance fitness was -0.826 ± 0.36. With Gamma-crystallin D G100K, P07320, the abundance fitness was -0.325 ± 0.17. The same measure for Gamma-crystallin D G100L, P07320: -0.266 ± 0.075; for Gamma-crystallin D G100M, P07320: -0.356 ± 0.14.

For Gamma-crystallin D G100Q, P07320, the abundance fitness was -0.565 ± 0.17. On to Gamma-crystallin D G100R, P07320, for which the abundance fitness was -0.437 ± 0.073.

For Gamma-crystallin D G100T, P07320, the abundance fitness is -0.889 ± 0.45. In the case of Gamma-crystallin D G100V, P07320, the abundance fitness was -1.13 ± 0.16.

For Gamma-crystallin D G100Y, P07320, the abundance fitness is -0.839 ± 0.32.

Gamma-crystallin D I103E, P07320: the abundance fitness amounted to 0.037 ± 0.13. With Gamma-crystallin D I103H, P07320, the abundance fitness was -0.186 ± 0.088.

In the case of Gamma-crystallin D I103Q, P07320, the abundance fitness is -0.03 ± 0.13. With Gamma-crystallin D I103R, P07320, the abundance fitness was found to be 0.055 ± 0.064. Regarding Gamma-crystallin D L112E, P07320, the abundance fitness is -0.383 ± 0.045.
